Patent publication US20070280945A1 (Regeneron, published 2007)
Substitutions are numbered along the chain they refer to.

B1: VV3D8-4 (antibody, V domains shown)
VH: EVQLVESGGGLVQPGRSLRLSCAASGFTFDDYALHWVRQAPGKGLEWVSGISWNSGRIGYADSVKGRFTISRDNAKNSLFLQMNSLRAEDTALYYCAKGRDAFDIWGQGTLVTVSS
VL: DIQMTQSPSSVSASVGDRVTITCRASQGISSWLAWYQQKPGKAPKLLIYAASSLQSGVPSRFSGSGSGTDFTLTISSLQPEDFATYYCQQANSFPYTFGQGTKLEIK
notes: Human variable regions with mouse constant region
B2: VV6C10-1 (antibody, V domains shown)
VH: B1 VH with I51V, S55G, A88V
VL: EIVLTQSPATLSLSPGERATLSCRASQSVSSYLAWYQQKPGQAPRLLIYDASNRATGIPARFSGSGSGTDFTLTISSLEPEDFAFYYCQQRNNRPPFTFGPGTKVDVR
notes: as for B1
B3: VV6C10-3 (antibody, V domains shown)
VH: QVQLVQSGAEVKKPGASVKVSCKASGFNFFHYGITWVRQAPGQGLEWMGWISTYNGDTIYAQKVQGRVTMTTDTATSTAYMELRSLRSDDTAVYYCARSEQQVDYYFYGMDVWGQGTTVTVSS
VL: B2 VL
notes: as for B1
B4: VV6F12-11 (antibody, V domains shown)
VH: QVQLVQSGAEVKEPGASVKISCKASGYTFTSYDIIWVRQATGQGLEWMGWMNPNSGDRGYTQNLQGRVTLTRDTSISTVYMELSSLRSEDTAVYYCARDYSNHYYGLDVWGQGTTVTVSS
VL: DIQLTQSPSFLSASVGDRVTITCWASQDISNYLAWYQQKPGKAPKLLIFVASTLQSGVPSRFSGSGSGTEFTLTISSLQPEDFATYYCQQFNSYPLTFGGGTKVEIR
notes: as for B1
B5: VV7G4-10 (antibody, V domains shown)
VH: QVQLVQSGAEVKKPGASVKVSCKASGYTFTSYGISWVRQAPGQGLEWMGWISAYNDDTNYAQKFQGRVTMTTDTSTSTAYMELRSLRSDDTAVYYCAREAQLVLYYYYGMDVWGQGTTVTVSS
VL: EIVLTQSPATLSLSPGERATLSCRASQSVSSFLAWNQQKPGQAPRLLIYDASNRATGIPARFSGSGSGTDFTLTISSLEPEDFAVYYCQQRSNWPYIFGQGTKLEIK
notes: as for B1
B6: VV9A6-11 (antibody, V domains shown)
VH: B5 VH
VL: B5 VL
notes: as for B1
B7: VQ8A9-6 hIgG1 (antibody, V domains shown)
VH: EVQLVESGGNLVQPGRSLRLSCAASGFIFDDYAMHWVRQAPGKGLEWVSGISWNSGSIGYADSVKGRFTISRDNAKNSLYLQMNSLRAEDTALYYCAKDGGSSWLPFVYYYGMDVWGQGTTVTVSS
VL: EIVMTQSPATLSVSPGERATLSCRASQSISSNFAWYQQKPGQAPRLLIYGASTRATGIPARFSGSGSGTDFTLTISSLQSEDFAVYYCQQYSSWPPYTFGQGTKLEIK
notes: Human IgG1 constant region
B8: VQ8A9-6 hIgG4 (antibody, V domains shown)
VH: B7 VH
VL: B7 VL
notes: Human IgG4 constant region
B9: VQ1G4-21 hIgG1 (antibody, V domains shown)
VH: B4 VH with I20V, D57N, R58T, D73N, S77T, R87S, N102S
VL: B4 VL with A13T, V15I, R107K
notes: Human IgG1 constant region
B10: VQ1G4-21 hIgG4 (antibody, V domains shown)
VH: B4 VH with I20V, D57N, R58T, D73N, S77T, R87S, N102S
VL: B4 VL with A13T, V15I, R107K
notes: Human IgG4 constant region
B11: VQ8F11-21 hIgG4 (antibody, V domains shown)
VH: B1 VH with G26R, L34M, K76E, S85G, A102S, L111M
VL: B1 VL with A50G, Q55E, T85S
notes: Human IgG4 (wild-type) constant region
B12: VQ8F11-21 hIgG1 (antibody, V domains shown)
VH: B1 VH with G26R, L34M, K76E, S85G, A102S, L111M
VL: B1 VL with A50G, Q55E, T85S
B13: VV6A9-5 hIgG4 (antibody, V domains shown)
VH: B1 VH with I51V, S55G, A88V
VL: B1 VL with Q90H, N92Y
notes: Human IgG4 constant region
B14: VV6A9-5 hIgG1 (antibody, V domains shown)
VH: B1 VH with I51V, S55G, A88V
VL: B1 VL with Q90H, N92Y
notes: Human IgG1 constant region

Biological target: T1, hIL-6R-hFc (human, UniProt P08887 20-358)
T1 construct: also called dimeric hIL-6R; Dimer; not shown: human Fc (hFc)
T1 sequence: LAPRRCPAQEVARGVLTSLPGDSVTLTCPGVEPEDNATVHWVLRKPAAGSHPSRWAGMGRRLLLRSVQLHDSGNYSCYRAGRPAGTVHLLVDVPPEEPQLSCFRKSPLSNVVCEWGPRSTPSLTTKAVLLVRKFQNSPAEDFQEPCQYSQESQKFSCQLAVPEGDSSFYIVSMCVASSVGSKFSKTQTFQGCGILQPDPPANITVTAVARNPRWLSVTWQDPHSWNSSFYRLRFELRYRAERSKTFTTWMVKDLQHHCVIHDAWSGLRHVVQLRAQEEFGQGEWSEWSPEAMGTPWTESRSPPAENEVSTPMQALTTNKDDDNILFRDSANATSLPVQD
Assay: SPR (BIAcore): hIL-6R-hFc captured, antibody injected, then 50 nM hIL-6; percent reduction in hIL-6 binding

Binder | hIL6/hIL6R Binding Inhibition (%)
B1 | 93%
B2 | 61%

Biological target: T2, hIL-6R recombinant protein (plate-coated, Example 5) (human, UniProt P08887 20-358, limits assumed)
T2 construct: also called antigen
T2 sequence: T1 sequence
Assay: competition ELISA on hIL-6R-coated plate presaturated with competitor control antibody; test antibody 50 ng/ml

Binder | % reduction of binding by control antibody
B3 | 1%
B4 | 3%
B1 | 84%
B2 | 80%
B5 | 26%
B6 | 18%

Biological target: T3, recombinant hIL-6R protein, monomeric form (human, UniProt P08887 20-358)
T3 construct: also called monomeric hIL-6R; Human IL6R
T3 sequence: T1 sequence
Assay: SPR (BIAcore), antibody captured on goat anti-human Fc, monomeric hIL-6R 1.56-12.5 nM

Binder | Kd | koff | kon
B7 | 0.238 nM | 0.00026 s⁻¹ | 1.09e+06 M⁻¹ s⁻¹
B8 | 0.201 nM | 0.000235 s⁻¹ | 1.17e+06 M⁻¹ s⁻¹
B9 | 0.237 nM | 7.92e-05 s⁻¹ | 334000 M⁻¹ s⁻¹
B10 | 0.336 nM | 9.18e-05 s⁻¹ | 273000 M⁻¹ s⁻¹
B11 | 0.073 nM | 5.22e-05 s⁻¹ | 717000 M⁻¹ s⁻¹
B12 | 0.073 nM | 4.54e-05 s⁻¹ | 622000 M⁻¹ s⁻¹
B13 | 0.135 nM | 7.64e-05 s⁻¹ | 567000 M⁻¹ s⁻¹
B14 | 0.125 nM | 8.87e-05 s⁻¹ | 712000 M⁻¹ s⁻¹

Biological target: T4, hIL-6R on hIL-6-responsive human cells (XG-1 myeloma line, HepG2 hepatoma line) (human, UniProt P08887 20-468)
T4 sequence (looked up): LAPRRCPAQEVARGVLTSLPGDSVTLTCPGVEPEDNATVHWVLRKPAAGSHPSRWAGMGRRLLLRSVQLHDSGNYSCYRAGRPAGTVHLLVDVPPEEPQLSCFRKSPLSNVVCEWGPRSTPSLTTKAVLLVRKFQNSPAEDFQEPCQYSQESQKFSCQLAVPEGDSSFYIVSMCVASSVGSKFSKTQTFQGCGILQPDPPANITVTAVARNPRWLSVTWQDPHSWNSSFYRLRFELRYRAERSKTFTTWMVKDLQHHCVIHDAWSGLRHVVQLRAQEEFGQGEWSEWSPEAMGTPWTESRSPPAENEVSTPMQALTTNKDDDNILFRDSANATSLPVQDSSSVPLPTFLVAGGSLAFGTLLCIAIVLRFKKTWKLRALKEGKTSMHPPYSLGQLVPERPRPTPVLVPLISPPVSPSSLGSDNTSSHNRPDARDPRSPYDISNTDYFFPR
Assay: cell-based or functional assay

Binder | XG-1 cell proliferation Inhibition IC50
B1 | > 100 nM
B2 | > 6.9 nM

Biological target: T1, hIL-6R-hFc
Assay: competition ELISA: antibody premixed with serial dilutions of hIL-6R-hFc, free antibody detected on hIL-6R-hFc-coated plate

Binder | IC50
B3 | 0.009 nM
B4 | 0.033 nM
B1 | 0.013 nM
B2 | 0.01 nM
B5 | 1.98 nM
B6 | 0.347 nM

Biological target: T2, hIL-6R recombinant protein …
Assay: SPR (BIAcore) competition on hIL-6R; competitor: control antibody

Binder | % reduction of binding by control antibody
B1 | 97%
B2 | 90%

Biological target: T3, recombinant hIL-6R protein, monomeric …
Assay: SPR (BIAcore), antibody captured on anti-mouse IgG surface, monomeric hIL-6R

Binder | Kd
B1 | 2.41 nM
B2 | 0.267 nM

Biological target: T3, recombinant hIL-6R protein, monomeric …
Assay: Kinexa solution-phase competition immunoassay, monomeric hIL-6R

Binder | Kd
B1 | 1.91 nM
B2 | 2.05 nM

Biological target: T1, hIL-6R-hFc
Assay: blocking ELISA: 100 pM hIL-6R-hFc premixed with varied antibody, free hIL-6R-hFc captured on hIL-6-coated plate

Binder | IC50
B3 | 0.06 nM
B4 | 2.2 nM
B1 | 0.61 nM
B2 | 4.6 nM
B5 | 13 nM
B6 | 0.5 nM

Biological target: T4, hIL-6R on hIL-6-responsive human cells …
Assay: cell-based or functional assay
Remark: another data set of the same source

Binder | HepG2/STAT3 luciferase assay IC50
B7 | 0.13 nM
B8 | 0.185 nM
B9 | 0.767 nM
B10 | 0.528 nM
B11 | 0.228 nM
B12 | 0.15 nM
B13 | 0.343 nM
B14 | 0.204 nM

Biological target: T1, hIL-6R-hFc
Assay: SPR (BIAcore), antibody captured on anti-mouse IgG surface, dimeric hIL-6R

Binder | Kd
B1 | 0.172 nM
B2 | 0.032 nM
